Experimental data from US20260167731A1 (DOMAIN THERAPEUTICS, published 2026).
Substitutions are numbered along the chain they refer to. “And” between values parts separate entries of the source, which are not always exact repeats. Equal values may be shown once.

B1: anti-CCR8 mAb 2-1 (antibody, V domains shown)
VH: KVQLQQSGPELVKPGASVKISCKTSGYTFTEYTIHWVQQIHGKSPEWIGGINPNGDTRYDQKFKGKATLTIDKSSSTAYMELRSLTSEDSAVYYCARVARFYGISPYAMDYWGQGTSVTVSS
VL: DVVMTQTPLSLPVSLGDQASISCRCTQSLLHSNGDTYLHWYLQKPGQSPNLLIYKVSNRFSGVPDRFSGSGSGTDFTLKINRVEAEDLGVYFCSQSTHVPYTFGGGTNLEIK
B2: anti-CCR8 mAb 2-4 (antibody, V domains shown)
VH: EVQLQQSGPELVKPGASVKISCKTSGYTFTEYTIHWVKQSHGESLEWVGGINPNNGNTRYDQKFKGKATLTIDKSSSPAYMELRSLTSEDSAVYYCARVARSSGSGPYAMDYWGQGTSVTVSS
VL: B1 VL with S32T, N50K, N81S, N108K
B3: anti-CCR8 mAb 2-2 (antibody, V domains shown)
VH: QVQLKESGPGLVAPSQSLSITCTVSGLSMNDYVVTWIRQPPGKGLEWLGVIWGGGNTYYNSDLKSRLSITKDNSKSQVFFKMSSLQTDDTAVYYCARRHRDYALDYWGQGISVTVSS
VL: B1 VL with C25S, T26S, L30V, H31Y, D35N, N50K, N81S, H98Y, Y101P, N108K
B4: anti-CCR8 mAb 2-10 (antibody, V domains shown)
VH: QVQVQQSGAELARPGASVKMSCKASGYTFTTYAMHWVKQRPGQGLEWIGHINPSSGYSNYNQKFKDKATLTADKSSSTAYMQLSSLTSEDSAVYYCARSEVRRGYFDVWGAGTTVTVSS
VL: DIQMTQTTSSLSASLGDRVTISCRTSQDIRNYLNWYQQKPDGTVKLLISYTSRLHSGVPSRFSGSGSGTDYSLTISNLEQEDFATYFCQQGNTLPPTFGGGTRVEIK
B5: chimeric anti-CCR8 mAb 2-18 (antibody, human IgG1, kappa)
heavy: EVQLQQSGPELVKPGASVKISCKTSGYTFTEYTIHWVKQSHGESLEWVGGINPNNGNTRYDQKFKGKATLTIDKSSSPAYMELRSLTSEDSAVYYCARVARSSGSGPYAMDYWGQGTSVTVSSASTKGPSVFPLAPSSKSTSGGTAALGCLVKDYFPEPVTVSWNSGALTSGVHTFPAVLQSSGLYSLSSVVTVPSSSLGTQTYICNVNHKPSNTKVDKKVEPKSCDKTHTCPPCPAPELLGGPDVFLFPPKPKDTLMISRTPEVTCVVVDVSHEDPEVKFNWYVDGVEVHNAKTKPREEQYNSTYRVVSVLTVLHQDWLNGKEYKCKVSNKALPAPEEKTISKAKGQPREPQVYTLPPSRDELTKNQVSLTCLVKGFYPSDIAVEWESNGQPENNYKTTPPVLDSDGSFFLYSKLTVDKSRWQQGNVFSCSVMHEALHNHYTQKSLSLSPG
light: DVVMTQTPLSLPVSLGDQASISCRCTQSLLHTNGDTYLHWYLQKPGQSPKLLIYKVSNRFSGVPDRFSGSGSGTDFTLKISRVEAEDLGVYFCSQSTHVPYTFGGGTKLEIKRTVAAPSVFIFPPSDEQLKSGTASVVCLLNNFYPREAKVQWKVDNALQSGNSQESVTEQDSKDSTYSLSSTLTLSKADYEKHKVYACEVTHQGLSSPVTKSFNRGEC

biological target: T1, human CCR8 (human, UniProt P51685 1-355); assay: flow cytometry, hCCR8 transfected CHOK1 cells
T1 construct: also called hCCR8; hCCR8_P51685
How it was run: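 Flow cytometry read fluorescent secondary antibody (anti-mouse Alexa 488 or anti-human Fc PE) after washing, with matched isotype controls included.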

% positive cells | MFI fold change to isotype ctrl | Binder
85.7% | 9.8 fold | B1
56.2% | 4.78 fold | B2
85.2% | 11.9 fold | B3
77% | 9.2 fold | B4

biological target: T1, human CCR8; assay: cell-based or functional assay

Top plateau values in presence of 5 µg/mL mAb (% of hCCL1 (100 nM)), protocol #3 | Binder
663% | B1
855% | B2
133% | B3
948% | B4

biological target: T1, human CCR8; assay: cell-based or functional assay; remark: another data set of the same source

ADCC % Max lysis, HUT78 targets, NK cells Donor 3 | ADCC % Max lysis, HUT78 targets, NK cells Donor 4 | ADCC EC50, HUT78 targets, NK cells Donor 3 | ADCC EC50, HUT78 targets, NK cells Donor 4 | Binder
25% | 28% | 0.218 nM | 0.053 nM | B5

biological target: T1, human CCR8; assay: cell-based or functional assay; remark: another data set of the same source

hCCL1 (100 nM) residual response in %, Protocol #2, mAb 0.08 µg/mL (0.53 nM) | hCCL1 (100 nM) residual response in %, Protocol #2, mAb 0.4 µg/mL (2.67 nM) | hCCL1 (100 nM) residual response in %, Protocol #2, mAb 10 µg/mL (66.7 nM) | hCCL1 (100 nM) residual response in %, Protocol #3, mAb 0.05 µg/mL (0.33 nM) | hCCL1 (100 nM) residual response in %, Protocol #3, mAb 0.5 µg/mL (3.33 nM) | hCCL1 (100 nM) residual response in %, Protocol #3, mAb 5 µg/mL (33.3 nM) | Binder
101% | 93% | 100% | 92% | 81% | 73% | B1
104% | 46% | 28% | 80% | 57% | 45% | B2
99% | 97% | 97% | 99% | 84% | 75% | B3
52% | 68% | 53% | 76% | 62% | 59% | B4

biological target: T1, human CCR8; assay: cell-based or functional assay; remark: another data set of the same source

IC50, CCL1 induced hCCR8 Gi2 signaling (BRET) at pH 6.5 | IC50, CCL1 induced hCCR8 Gi2 signaling (BRET) at pH 7.4 | Binder
0.051 µg/ml and 0.34 nM | 0.059 µg/ml and 0.396 nM | B1
0.414 µg/ml and 2.76 nM | 0.359 µg/ml and 2.4 nM | B3

biological target: pm5, modified CCR8 related peptide (human, sulfated tyrosines at Y15 and Y17); assay: ELISA on coated CCR8 peptide (500 ng/mL), OD [cont.]
Sequence (peptide, as listed by the source): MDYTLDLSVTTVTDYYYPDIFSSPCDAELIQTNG
How it was run: (§1)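 Peptides coated at 500 ng/mL in carbonate/bicarbonate buffer; anti-CCR8 mAbs applied at 1 μg/mL and a 1/10 dilution for 90 min at room temperature. After washing, TMB substrate was developed for 15 min and OD read as a measure of mAb reactivity.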

binding result | Binder
binds | B1
binds | B2
binds | B3
binds | B4

biological target: pm4, modified CCR8 related peptide (human, sulfated tyrosines at Y15 and Y16); assay: as above
Sequence (peptide, as listed by the source): as above
How it was run: as §1

binding result | Binder
binds | B1
binds | B2
binds | B3
binds | B4

biological target: pm8, modified CCR8 related peptide (human, sulfated tyrosines at Y15, Y16 and Y17); assay: as above
Sequence (peptide, as listed by the source): as above
How it was run: as §1

binding result | Binder
binds | B1
binds | B2
binds | B3
binds | B4

biological target: pm1, modified CCR8 related peptide (human, sulfated tyrosine at Y15); assay: as above
Sequence (peptide, as listed by the source): as above
How it was run: as §1

binding result | Binder
binds | B1
binds | B2
binds | B3
binds | B4

biological target: pm3, modified CCR8 related peptide (human, sulfated tyrosine at Y17); assay: as above
Sequence (peptide, as listed by the source): as above
How it was run: as §1

binding result | Binder
binds | B1
binds | B2
binds | B3
binds | B4

biological target: pm2, modified CCR8 related peptide (human, sulfated tyrosine at Y16); assay: as above
Sequence (peptide, as listed by the source): as above
How it was run: as §1

binding result | Binder
binds | B1
binds | B2
binds | B3
binds | B4

biological target: pm6, modified CCR8 related peptide (human, sulfated tyrosines at Y16 and Y17); assay: as above
Sequence (peptide, as listed by the source): as above
How it was run: as §1

binding result | Binder
binds | B1
binds | B2
binds | B3
binds | B4

biological target: T2, pwt1, unmodified CCR8 related peptide (human, none (non-sulfated Y15, Y16, Y17)); assay: as above
T2 construct: First 34 amino acids of human CCR8, synthetic; also called unmodified peptide
T2 sequence (peptide, as listed by the source): as above
How it was run: as §1

binding result | Binder
binds | B1
binds | B2
binds | B3
binds | B4

biological target: T1, human CCR8; assay: cell-based or functional assay; remark: another data set of the same source

ADCP % Max of phagocytosis, HUT78 targets, monocyte-derived macrophages Donor 9 | Binder
7.27% | B5

biological target: T1, human CCR8; assay: flow cytometry, inhibition of hCCL1-AF647 binding to hCCR8 CHO cells
How it was run: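 hCCR8-transfected CHO cells preincubated 30 min at 4 °C with anti-CCR8 mAb from 10 μg/mL, 1/3 dilutions, 8 concentrations. Bound CCL1 quantified by flow cytometry. IC₅₀ from sigmoidal variable-slope fit.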

IC50 | Binder
1.29 µg/mL and 8.62 nM | B1
0.6 µg/mL and 4.01 nM | B2
2.65 µg/mL and 15.2 nM | B3
0.22 µg/mL and 1.46 nM | B4

biological target: T1, human CCR8; assay: cell-based or functional assay; remark: another data set of the same source

IC50, CCL1 induced hCCR8 Gi2 signaling (BRET, HEK-293) | Binder
0.462 nM and 0.069 µg/mL | B1
0.046 µg/mL and 0.306 nM | B2
0.143 µg/mL and 0.954 nM | B3
0.004 µg/mL and 0.029 nM | B4
